From publication PMC3841736

Molecular target: APC (UniProt P25054)
Assay: Flag co-IP, immunoblot
Conditions: reference: wild-type Flag:α-catenin; sites Y177

binding against the reference: stronger
Substance: α-catenin (from UniProt P35221) Y177F
